Measured values reported in a protein production outcome set (Wang et al. 2014).

Experiment: label from the status in PepcDB records

Sequence | protein production
MGICVSFRREDSNSSPTVKIVTVNGDLREYNVPVIASQVLEAESAAAYSSSSSSRPSSYFICDSDSLYYDDFIPAIKSEEPLQADQIYFVLPISKRQSRLTASDMAALAVKASVAIQNSVKKESRRRKKVRISPVMMLTGSNDSVNGNGSETTVKKGRPFVSKTAPVKASSGINRSGSVRNLRRYTSKRAKLAVRSFRLKLSTIYEGSVV | failed
MLSVRIPGPARQAWAIVEQRPWLARRPFIIHGPPWRLASQQEDDVFKLMSRSAVKMVERYLPDPYVFVVLLTLVAAGAAMIIEGQTPMAVVRWWGNGFWGLLTFAMQMLLVLVTGYMLASTPLVKRMLARLASLATSAGGAIILVSVVSLAASWINWGFGLVVGALFAKQIARQVRVDYRLLVASAYSGFIIWHGGLAGSIPLTIATEGHFSADKIGIIPTGDTIFAVFNLVIVVAMFILVPLVNRLMLPDEKESVYVDPARLEEASVPASDDDKRPAARLENSRLLAWLIAAGGLAYMFDYYVVRGAGLNLNVINFSFLILAILLHGTPRRLLTSLDEAIKGGAGIVIQFPFYAGIMAIMMDSGLAATLSEWFVSIASAATLPFWTFISAGIVNIFIPSGGGQWAVQSPIVISAAQALGADMPRVAMAVAWGDAWTNMLQPFWALPVLAIAGLKAKDIMGYCIIQLLVTGVIISVGLSFF | failed
MIFALHIMLRFVPNIVPLSIINKKTMTRIGLLSDTHAFWDDKYLKYFENCDEIWHAGDIGSVEVARKLSAFRPFRAVYGNIDGQDIRRLYPQTNRFTVDGAEVLIKHIGGYPGNYDPSIRGSLLVKPPQLFISGHSHILKVKYDKTLDMLHINPGAAGISGFHKVRTLVRFCIDNGEFKDLEVIELADKL | failed
MVNDIKKTALAVVTALITAVSAQLSFKIGPVPYTMQNFGVMLSGFLLGPYYGLLSMAIYLALIAFSLPIAAGGGGLGVLIGPTAGFLYGFLISSFLAGVFRRAIWREGSRREVLMLWLSTLVASMPIYLLGFFVFYNFAMIDEKLLIRSESAVRAFNLSFSSPTMVIFAATVLIFLPQDFFVDHLLAVLVFRYVHRMLNERGVEVD | failed
MAASPSTYAFNGESKETGNDSSKLSKAPATKGGKPHIIFIMSDQHRGDALHCMGNKAVISPNIDKLAQEGSLFVCGYSSAPSSTPARAGLLTGMSPWHHGMLGYGKVASKYKYEMPQMLRDLGYYTFGIGKMHWFPQKALHGFHATLVDESGRSETRDFISDYREWFQLQAPGKNPDLTGIGWNNHNAGTYKLEERLHPTAWTGQTACELIRNYDSDQPLFLKVSFARPHSPYDPPKRYLDMYEKVDIPVPFVGDWCGKYAERKDPERVSKDAAFANLGEEYAVNSRRHYYANVTFIDDQIGQIIQTLKEKGMYENAIICYTADHGDMLGDHYHWRKTYAYEGSAKIPYIIKWPSAMTTQAIRGKRIEQPVELRDFLPTFIELAGGTVPDDMDGKSLVALASGNKNGWRKYIDLEHATCYSADNYWCALTDGKMKYIWFIHTGEEQLFDLSSDPGEQKNLSGNSRYADRLVEMRKAMVDHLQERGTEFVKDGKLAVRDQTLLYSPNYPKD | failed
MRTPCSQHRRDRPSAIGSQLPDADTLDTRQPPLQEIPISSFADKTFTAPAQIRNFCIIAHIDHGKSTLADRMLQLTGVVDERSMRAQYLDRMDIERERGITIKAQNVRLPWRVDKTDYVLHLIDTPGHVDFTYEVSRALEACEGAVLLVDAAQGIEAQTLANLYLALDRDLHIIPVLNKIDLPAADPDRYAAEMAHIIGCEPAEVLRVSGKTGEGVSDLLDEVVRQVPPPQGDAEAPTRAMIFDSVYDIYRGVVTYVRVVDGKISPRERIMMMSTGATHELLEVGIVSPEPKPCEGLGVGEVGYLITGVKDVRQSKVGDTVTSLSRARGAAAEALTGYREPKPMVYSGLYPVDGSDYPNLRDALDKLQLNDAALTYEPETSVALGFGFRCGFLGLLHMEITRERLEREFGLDLISTSPNVVYRVHKDDGTEIRVTNPSDWPEGKIRTVYEPVVKTTIIAPSEFIGTIMELCQSRRGELGGMDYLSPERVELRYTMPLGEIIFDFFDALKSRTRGYASLDYEEAGEQEAALVKVDILLQGEAVDAFSAIVHKDTAYAYGNKMTTKLKELIPRQQFEVPVQAAIGSKIIARENIRAIRKDVLSKCYGGDITRKRKLLEKQKEGKKRMKTIGRVEVPQEAFVAALSTDAAGDKGKK | failed
MKNIEKLEQSLTYEFKDKNLLIHALTHKSFKKSYNNERLEFLGDAVLDLVVGEYLFHKFAKDAEGDLSKLRAALVNEKSFAKIANSLNLGDFILMSVAEENNGGKEKPSILSDALEAIIGAIHLEAGFEFAKTIALRLIEKNFPQIDAKILIKDYKTKLQEITQGKIGQTPQYETVRAFGPDHLKQFEIALMLDGKELARAIAGSKKEAQQMAAKIALEKLGAL | not failed
MTTRTRNLYILMLANLLMSASMTMIMPFLSLYIETFGDYSNAYVQRWAGYIFGVTFLIAFIFSPIWGRIGDKHGYKGILILTSVGLSICIFLMGFAHSVTYLLILRIFMGVVTGFIGVSNAFIARQTPRNEAGKVLGTLQLGGVTGMLFGPLIGGAMADLFGFKDTFTITGIAMMVAALIVAFGVKEIRTEEQKEAAKVVYSRRAVLKQIFTLRVLFTVMVITALIQIANFSVQPLLALYVGDMTQSDNIAFLSGLAFSATGFGNLVMTRKWGQLGDKYGYEKILNILLIMAAVFVIPQAFATNLWVFIFFRFLFGIAIGGMVPCTTAYIRLAAPGVMQGEMLGYNQSARFLGNVIGPILGGTLAGFTGIPSVFLFMSFMFLVAFFILLYALRSDRKRHVNVD | failed
MARQLDEQIAGRFPVGQRLRVLDVGMGQGTQALRLARAGHQVTGVEQDATMIAVARETLAAEPEGIRSRMRLVQSDGRDTGVHFLPGSFDVVLCHGVLMYVEDPDALLAGLARMLAPGGLLSLLVRNADALAMRPGLAGDWASALTSFDTTAYTNRLGLDVRADRLDALTSTLAGIGAPLHAWYGVRVFTDTAADGAELPADVETLLAAEERAGRTDPYRQVAALLHLCGVRGGGAP | failed
MSLEAIHRSTRIEFSKSSLAYNVQYTKQVSGAKTLWLAVKSNAYGHGLLQVSKIARECGVDGLAVSVLDEGIAIRQAGIDDFILILGPIDVKYAPIASKYHFLTTVSSLDWLKSADKILGKEKLSVNLAVDTGMNRIGVRSKKDLKDEIEFLQEHSDHFSYDGIFTHFASSDNPDDHYFQRQKNRWYELIDGLIMPRYVHVMNSGAAMYHSKELPGCNSIARVGTVVYGVEPSEGVLGPIDKLKPVFELKSALTFVKKIPAGEGISYGSKFVTSRDTWIGTLPIGYGDGWLAEYQDFQLLIDGQKCRQVGQIAMDQMMVALPHEYPIGTEVTLIGKSGKYENTLYDLHKHSGVPPWKITVAFSDRLKRMVVDEGHHHHHH | not failed
MAALLGIVSPVTFTGKHPVNSRSRRRTVVKCSNERRILFNRIAPVYDNLNDLLSLGQHRIWKNMAVSWSGAKKGDYVLDLCCGSGDLAFLLSEKVGSTGKVMGLDFSSEQLAVAATRQSLKARSCYKCIEWIEGDAIDLPFDDCEFDAVTMGYGLRNVVDRLRAMKEMYRVLKPGSRVSILDFNKSNQSVTTFMQGWMIDNVVVPVATVYDLAKEYEYLKYSINGYLTGEELETLALEAGFSSACHYEISGGFMGNLVAMR | failed
VVIQFYEERLTWHTGSGNGNGNTNSVNLGSSGGLGSVGGSGAGDDTAPGSVGTTGGGSNIDGGDEEDPEPASPIGSINQDENIKPDESSELDNGQPDADD | failed
MSSHNMTEVLVGGAVLAAALTFGIYASQATGLSRGTGGYELAASFRSLEGVTVGTDVRLAGVKIGTVTGVDLNPESYRADTRFTVSEGIQIPDDSAAVISSEGLLGGNFLEIMPGGSAFYFEPGDVIDDTQGAVSLISLLVKFVAGDGSGELEHHHHHH | not failed
MVEENQLQSLKDVAKQAPVHRKLDIQEWKTAEGAKVLFVEAHELPMFDLRLTFAAGSSQDAGTPGLSMLTNAMLNEGVPGKDTTAIAAGFEDLGASFSNGSYRDMAVAGLRSLSEADKRTQALKLFEQVIGQPTFPEDALARIKNQVLAGFEYQKQNPGKLAGLELFKRLYGEHPYAHSSDGDEKSVPTISREQLQAFHKKAYAAGNVVIALVGDLSRQEAEAIAAEVSKALPQGPALAKTVQPETPKPGLTHIDFPSEQTHLMLAQLGIDRQDPDYAALYLGNQILGGGGFGTRLMDQVREKRGLTYGIYSGFTAMQARGPFMINFQTRAELSEGALKLVQDIVRDYLANGPTQKELDDAKRELAGSFPLSTASNADIVGQLGAIGFYGLPLDYLESFLKQVEGLSVEQVRTAMAKHLDADAFVIVSAGLEHHHHHH | not failed
MEEGGDFDNYYGADNQSECEYTDWKSSGALIPAIYMLVFLLGTTGNGLVLWTVFRSSREKRRSADIFIASLAVADLTFVVTLPLWATYTYRDYDWPFGTFFCKLSSYLIFVNMYASVFCLTGLSFDRYLAIVRPVANARLRLRVSGAVATAVLWVLAALLAMPVMVLRTTGDLENTTKVQCYMDYSMVATVSSEWAWEVGLGVSSTTVGFVVPFTIMLTCYFFIAQTIAGHFRKERIEGLRKRRRLLSIIVVLVVTFALCWMPYHLVKTLYMLGSLLHWPCDFDLFLMNIFPYCTCISYVNSCLNPFLYAFFDPRFRQACTSMLCCGQSRCAGTSHSSSGEKSASYSSGHSQGPGPNMGKGGEQMHEKSIPYSQETLVVD | not failed
MTHNIHDNISQWMKSNEETPIVMSSRIRLARNLENHVHPLMYATENDGFRVINEVQDALPNFELMRLDQMDQQSKMKMVAKHLISPELIKQPAAAVLVNDDESLSVMINEEDHIRIQAMGTDTTLQALYNQASSIDDELDRSLDISYDEQLGYLTTCPTNIGTGMRASVMLHLPGLSIMKRMTRIAQTINRFGYTIRGIYGEGSQVYGHTYQVSNQLTLGKSELEIIETLTEVVNQIIHEEKQIRQKLDTYNQLETQDRVFRSLGILQNCRMITMEEASYRLSEVKLGIDLNYIELQNFKFNELMVAIQSPFLLDEEDDKSVKEKRADILREHIK | failed
METRASYILVGVFTLLAVTGALAFVLWTAGRGEGKAMAAYDVHFSGNVMGLSVASDVFFNGVKVGAVKQITLNPDDPAKVKVRIEIDATTPVREDSVASLEGRGLTGVSVVQITGGSPHAPLLVGTAGEVPVIASRASRLEELFAGMPQLVGSGNELVNRLADVLNAENRAALASTFHALDTVTARMAARADSLDRIITNMDTTTRRLANASAGLETLAGDMRDLTRGDMRDSIVAVGNTARRLDALLAAAEPGVTGFSTEGLEDMRRLLIESRHLVTTLNRMAQRMESDPRRFMFGNQLPEYEER | failed
MAKIDALAPQYSRIILLGHSAGGMIVRDAYLLAAGAYLDQPSRGAWWSKVESVLLFASINRGFRPYATATWALGMALMKLVSLQWLLLKPPSWFTLGWLMELEKGSFFVTDLRLSWMRHFHERDDEHRPFVVQFLGDIDGVVAREDVRDTEAFANSYTVTIEGADHSNLFDPAAPPGAAGFMRIMEVFRNPDPQLHEPEQAGELPATGPGRVVFVLHGIRDGNSGWVTDIAEAIEQQAKSDGQGKPLAAACSGHESPVLVDRSTYGWFSAIKFALPWVRRGNLAWFLDRYSYHVARNPDVQFHFVGHSNGTYILGTSLLEVSSLKFDRVYLAGSVLPREFPWQRMMLRRQVATVANQCSSEDWPVGGLCRGLHLIGFRDVGTGGVDGFDELRDLPTQPQTLWFKGDHGKPLQRPNQPNIVNYVLASHIATPLLSAPTGADLCERPSFWFRARMYGFALLTALGVGAAFYGAWWGFTHDHEGLVIAGILLLYFVLNTI | failed
LKVLTNKASVMLFMKGNKQEAKCGFSKQILEILNSTGVEYETFDILEDEEVRQGLKTFSNWPTYPQLYVRGDLVGGLDIVKELKDNGELLPILKGE | not failed
